These results are taken from patent US20240252635A1 (Genmab, published 2024).

For one assay, the target named is T1, cynomolgus monkey CD37 (cynomolgus monkey (Macaca fascicularis), UniProt P11049 1-281 (human entry)).
T1 construct: also called mfCD37; cynomolgus CD37
T1 chain: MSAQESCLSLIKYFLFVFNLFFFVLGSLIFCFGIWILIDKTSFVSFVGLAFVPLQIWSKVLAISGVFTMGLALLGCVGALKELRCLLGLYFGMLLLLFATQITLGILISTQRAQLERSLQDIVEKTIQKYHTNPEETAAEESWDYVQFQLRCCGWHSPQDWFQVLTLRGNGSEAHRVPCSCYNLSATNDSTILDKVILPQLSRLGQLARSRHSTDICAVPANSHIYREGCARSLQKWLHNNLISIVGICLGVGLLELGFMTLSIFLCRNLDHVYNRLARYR
Description: flow cytometry, Alexa-488 labeled antibody on B cells in cynomolgus monkey whole blood; average of 4 animals. The method, then: (§1) Binding to human or cynomolgus monkey B cells was determined in a whole blood binding assay. Heparin-treated human blood from healthy volunteers was derived from UMC Utrecht (Utrecht, The Netherlands), hirudin-treated blood from cynomolgus monkeys was derived from Covance (Münster, Germany). Blood was aliquoted to wells of a 96-well round-bottom plate (Greiner Bio-one, cat. no. 65010; 35 μL/well). Red blood cells (RBC) were lysed by addition of 100 μL RBC lysis buffer (10 mM KHCO₃ [Sigma P9144], 0.1 mM EDTA [Fluka 03620] and […] NH₄CL [Sigma A5666]) and incubated on ice until RBC lysis was complete.
(§2) Cells were pelleted and washed twice in 150 μL FACS buffer and resuspended in 150 μL TO-PRO-3 (end concentration 0.2 μM; Molecular Probes, cat no. T3605). Samples were measured by flow cytometry using an LSRFortessa flow cytometer. Binding is expressed as geometric mean of A488 fluorescence intensity for viable TO-PRO-3⁻/CD14⁻/CD19⁺ B-cells (human) or viable TO-PRO-3⁻/CD14⁻/CD19⁺/CD20⁺ B-cells (cynomolgus monkey). Log-transformed data were analyzed using best-fit values of a non-linear dose-response fit in GraphPad PRISM.
Background: In flow cytometry, cells or beads pass a laser one at a time.

For assay [1], the target named is T2, human CD37 (human (Homo sapiens), UniProt P11049 1-281).
T2 construct: Endogenous on Daudi cells, Raji cells and human blood B cells; also called Leukocyte Antigen CD37; GP52-40
T2 sequence: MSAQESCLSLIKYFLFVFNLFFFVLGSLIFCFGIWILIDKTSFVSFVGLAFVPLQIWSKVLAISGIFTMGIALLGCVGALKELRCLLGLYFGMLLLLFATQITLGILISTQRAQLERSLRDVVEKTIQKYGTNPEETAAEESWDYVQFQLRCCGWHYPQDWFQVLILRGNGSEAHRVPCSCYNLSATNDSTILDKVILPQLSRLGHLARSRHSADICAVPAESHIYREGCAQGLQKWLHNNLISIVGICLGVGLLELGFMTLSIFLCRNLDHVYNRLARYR
Description: flow cytometry, Alexa-488 labeled antibody on B cells in human whole blood; average of 6 donors. The procedure: as §1, §2

Assay [2] concerns the target T2, human CD37. Description: flow cytometry on HEK293 cells expressing wild type CD37 or alanine mutants, Alexa488 antibody at 3 µg/mL. The procedure:
The wild type CD37 and alanine mutants were expressed individually in FreeStyle HEK293 cells according to the manufacturer's instructions (Thermo Scientific). One day post transfection the cells were harvested. […] Cells were incubated for 1 hour at room temperature. Subsequently, cells were washed twice by adding 150 μL FACS buffer and removing the supernatant after centrifugation. Cells were resuspended in 20 μL fresh FACS buffer and stored at 4° C. until analysis by flow cytometry using an iQue screener (IntelliCyt). The entire experiment was performed 2 times.

B1: bsIgG1-016-H5L2-LC90S-F405L-E430Gx010-H5L2-K409R-E430G (bispecific antibody)
heavy 1: not shown
light 1: DVVMTQSPSTLSASVGDRVTITCQASQNIDSNLAWYQQKPGKAPKFLIYYASNLPFGVPSRFKGSGSGTEFTLTISSLQPDDFATYYCQSADVGSTYVAAFGGGTKVEIKRTVAAPSVFIFPPSDEQLKSGTASVVCLLNNFYPREAKVQWKVDNALQSGNSQESVTEQDSKDSTYSLSSTLTLSKADYEKHKVYACEVTHQGLSSPVTKSFNRGEC
heavy 2: not shown
light 2: AYDMTQSPSTLSASVGDRVTITCQASQNIIDYLAWYQQKPGKAPKLLIHKASTLASGVPSRFKGSGSGTEFTLTISSLQPDDFATYYCQQGYSNSNIDNTFGGGTKVEIKRTVAAPSVFIFPPSDEQLKSGTASVVCLLNNFYPREAKVQWKVDNALQSGNSQESVTEQDSKDSTYSLSSTLTLSKADYEKHKVYACEVTHQGLSSPVTKSFNRGEC
notes: also called bispecific CD37 antibody
By EC50 is commonly meant the concentration giving half of the maximal effect. For the molecule B1, the EC50 with cynomolgus monkey CD37 is 0.63 mg/L; in the assay with human CD37 [1], 0.85 mg/L.

B2: bsIgG1-016-H5L2-LC90S-F405L-E430Gxb12-K409R-E430G (bispecific antibody)
heavy 1: not shown
light 1: DVVMTQSPSTLSASVGDRVTITCQASQNIDSNLAWYQQKPGKAPKFLIYYASNLPFGVPSRFKGSGSGTEFTLTISSLQPDDFATYYCQSADVGSTYVAAFGGGTKVEIKRTVAAPSVFIFPPSDEQLKSGTASVVCLLNNFYPREAKVQWKVDNALQSGNSQESVTEQDSKDSTYSLSSTLTLSKADYEKHKVYACEVTHQGLSSPVTKSFNRGEC
heavy 2: not shown
light 2: EIVLTQSPGTLSLSPGERATFSCRSSHSIRSRRVAWYQHKPGQAPRLVIHGVSNRASGISDRFSGSGSGTDFTLTITRVEPEDFALYYCQVYGASSYTFGQGTKLERKRTVAAPSVFIFPPSDEQLKSGTASVVCLLNNFYPREAKVQWKVDNALQSGNSQESVTEQDSKDSTYSLSSTLTLSKADYEKHKVYACEVTHQGLSSPVTKSFNRGEC
notes: also called antibody 016
For the molecule B2, the binding result with human CD37 [2] was “binds”.
